Data on one molecule can be found in patent publication US6884600B1, “Protein phosphatase-1 catalytic subunit interactions” (Medical Research Council London, priority 1996, dated 2005).

Series [1] concerns the target T1, PP1c (Oryctolagus cuniculus, UniProt P62143).
T1 construct: from tissue; host or cells: rabbit skeletal muscle (PP1G dissociated with LiBr)
The series can be described thus: MLC20 (myosin P-light chain) phosphatase activity of PP1c. In kind it is biochemical. The essentials: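 Rabbit skeletal muscle PP1c was preincubated 15 min at 30 °C with M110 fragments before adding 32P-labelled chicken gizzard MLC20 (1 μM). Activity is expressed as % of control incubations without M110 fragments; one unit releases 1 μmol phosphate per min.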

Series [2] addresses T1, PP1c. The series can be described thus: Phosphorylase phosphatase activity of PP1c. In kind it is biochemical, rabbit. In a few lines: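 Rabbit skeletal muscle PP1c preincubated 15 min at 30 °C with M110 fragments, then assayed on 32P-labelled rabbit phosphorylase a (10 μM). Activity expressed as percentage of that without fragments; 1 U releases […] phosphate per minute.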

T1 sequence (P62143 whole entry): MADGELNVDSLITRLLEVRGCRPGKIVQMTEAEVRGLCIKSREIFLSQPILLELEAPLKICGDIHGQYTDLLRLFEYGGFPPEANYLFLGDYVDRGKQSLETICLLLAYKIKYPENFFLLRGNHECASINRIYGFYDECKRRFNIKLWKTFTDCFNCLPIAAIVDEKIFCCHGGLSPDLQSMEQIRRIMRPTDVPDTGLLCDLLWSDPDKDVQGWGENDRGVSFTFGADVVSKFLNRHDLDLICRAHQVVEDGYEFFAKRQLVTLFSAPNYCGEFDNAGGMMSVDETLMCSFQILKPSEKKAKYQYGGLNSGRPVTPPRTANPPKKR

B1: M110-(M1-E309): rat aorta M110 fragment, residues 1-309, released from GST-fusion protein with thrombin (protein)
chain: GSPGMKMADAKQKRNEQLKRWIGSETDLEPPVVKRQKTKVKFDDGAVFLAACSSGDTDEVLKLLHRGADINYANVDGLTALHQACIDDNVDMVKFLVENGANINQPDNEGWIPLHAAASCGYLDIAEFLIGQGAHVGAVNSEGDTPLDIAEEEAMEELLQNEVNRQGVDIEAARKEEERIMLRDARQWLNSGHISDVRHAKSGGTALHVAAAKGYTEVLKLLIQAGYDVNIKDYDGWTPLHAAAHWGKEEACRILVDNLCDMETVNKVGQTAFDVADEDILGYLEELQKKQNLLHSEKRDKKSPLIESTANMEA
For B1, in the series with PP1c [1], the “concentration required to activate the MLC20 phosphatase activity maximally” value was determined as 0.1 nM and the “increase in PP1c activity towards MLC20 (maximal activation)” value is reported as “about 3 fold”. Also, in the series with PP1c [2], the “suppression of PP1c activity towards glycogen phosphorylase” value is “about 80%”.
